Bridges are numbered along the chain shown (N, C = ends).
Tests used:
[1] = Circular dichroism (CD) spectroscopy of HABD2 peptides in Milli-Q water (Example 1); format: physicochemical; settings: for [θ]222/[θ]208 ratio of ellipticities / fH fraction helicity / Molar ellipticity [θ]192 / Molar ellipticity [θ]208 / Molar ellipticity [θ]222: 0.5 mM in Milli-Q water; for fH fraction helicity: equations 1-3; for α-helical character by CD (in words): Milli-Q water; for Molar ellipticity [θ]192: λ = 192 nm; for Molar ellipticity [θ]208: λ = 208 nm; for Molar ellipticity [θ]222: λ = 222 nm
Text: In addition, a large mean residue ellipticity indicates greater α-helical character. […] This was predicted to be the case, as there is a lack of contributing residues that might form a hydrophobic core, thereby helping to stabilize the secondary structure of the linear peptide. For this reason, bridges were introduced into the peptides. […] The differences in α-helicity induced by the bridges placed at different points within each peptide may be due to the differences in their primary sequences. Specifically, two amino acids (at the i and i+4 position) have to be replaced in order to form the lactam bridge. In compound 133, leucine was replaced at both the i and i+4 position; while in compound 136, glutamine was replaced at the i position and aspartic acid was replaced at i+4. Leucine and glutamine are proposed to be helix-stabilizing residues.
A larger portion of the RHAMM protein was used as the reference for α-helical character of the truncated peptides. 7 kDa RHAMM (SEQ ID NO: 1) is a mini protein that is composed of 62 amino acids, which was derived from the C-terminus of the full-length RHAMM sequence. It contains both HABDs, and is predicted to have almost complete α-helix shape, similar to that of native full-length RHAMM.
A peptide's α-helicity can be quantified using equations 1-3: fH=[([θ]obs222−[θ]c)/([θ]max222−[θ]c)] (Equation 1) [θ]c=2220+53T (Equation 2) [θ]max222=(−44000+250T)(1−k/N) (Equation 3) where fH is the ratio of the average number of helical hydrogen bonds divided by the total number of hydrogen bonds that can be found in a peptide, T is the temperature in degrees Celsius, N is the number of residues in the peptide and k is a constant of ellipticity when 100% of the structure is α-helical (3 for carboxyamidated peptides).
Milli-Q water was chosen as the solvent in which all peptides would be dissolved for CD spectroscopy, as it is a UV invisible solvent, which is a requirement of the analytical technique, and it represents RHAMM's natural environment in the body. Luo and Baldwin [18] stated that when peptides are taken out of their native protein sequence, they usually show little to no helical formation in water alone. For this reason, TFE/H2O solutions are commonly used in studies to observe the α-helix characteristics, and may improve the helical nature of the peptides observed here. However, a helix-stabilizing solvent, such as TFE, would not be as contextually relevant, as there are no solvent stabilizing effects in the body. Thus use of TFE would tend to produce skewed results and not be representative of the peptide's natural behavior.

[2] = system: RHAMM-overexpressing (LR21) cells; assay: Cell migration assay (Boyden chamber, Chemicon ECM510); format: cell-based; settings: 10 ng/mL peptide; 20 hours; compared to 30% serum control
Method: Compounds 132, 133, 150-152, 156-161, 265-269, 275, 277, and 278 were evaluated for their ability to inhibit cell migration. Cell migration assays were performed using Chemicon Assay Kits (ECM510 (Migration); Billerica, Mass., USA) according to the manufacturer's protocol. Briefly, sub-confluent cultures of RHAMM-overexpressing (LR21) cells were serum starved overnight. 7.5×10^4 cells were then plated in the upper chamber of a Boyden chamber. either in the presence or absence of 10 ng/mL of peptide. 30% fetal bovine serum in DMEM was used as the chemo-attractant in the lower chamber. The number of cells that had crossed the membrane after 20 hours was assessed using the CYQUANT GR Dye and lysis buffer solution provided in the kit. Fluorescence was measured with a fluorescent plate reader using a 480/520 nm filter set.
Values are the mean and SDM of n=3 replicates. *p<0.05, **p<0.01. All statistics compare to 30% serum control. In FIGS. 41-43, where bars are labeled with two compound numbers (“133/150” and “135/152”) this means that the data were pooled for the indicated compounds, i.e., for the non-acetylated and acetylated versions of the indicated peptides.

[3] = system: RHAMM-overexpressing (LR21) cells; assay: Cell invasion assay (Boyden chamber with MATRIGEL, Chemicon ECM555); format: cell-based; settings: 10 ng/mL peptide; 20 hours; compared to 30% serum control
Method: Compounds 132, 133, 135, 150-153, 156, 265-269, and 275-278 were evaluated for their ability to inhibit cellular invasion. Invasion assays were performed using Chemicon Assay Kits ECM555 (Invasion); Billerica, Mass., USA) according to the manufacturer's protocol. Invasion assays are performed in an identical manner as the migration assays described above in Example 5, except that cells are required to invade through a layer of extracellular matrix (MATRIGEL) coating the filter that separates the upper and lower Boyden chambers. Briefly, sub-confluent cultures of RHAMM-overexpressing (LR21) cells were serum starved overnight before plating 7.5×10^4 cells in the upper chamber of a Boyden chamber either in the presence or absence of 10 ng/mL of peptide. 30% fetal bovine serum in DMEM was used as the chemo-attractant in the lower chamber. The number of cells that had crossed the membrane after 20 hours was assessed using the CYQUANT® GR Dye and lysis buffer solution provided in the kit. Fluorescence was measured with a fluorescent plate reader using 480/520 nm filter set.
Values the mean and SDM of n=3 replicates. *p<0.05, **p<0.01, ***p<0.001 All statistics compared to 30% serum control. In FIG. 49, where bars are labeled with two compound numbers (“152/135”) this means that the data were pooled for the indicated compound, i.e., for the non-acetylated and acetylated versions of the indicated peptide.

NF-κB = assay: Inflammation assay: NF-κB inducible SEAP reporter in RAW-Blue macrophages stimulated with PAM3CSK4; format: cell-based, murine; settings: 10 ng/mL peptide with 200 ng/mL PAM3CSK4; 18 hours; compared to +PAM3
Method: Compounds 132, 133, 135, 150, 152, 157-161, 265-269, 275, 277, and 278 were evaluated for their ability to inhibit inflammation. To determine the effect of the peptides on inflammation, commercially available murine RAW 264.7 macrophages carrying a secreted embryonic alkaline phosphatase (SEAP) reporter that is inducible by NF-κB (RAW-Blue; InvivoGen, San Diego, Calif., USA) were used. Cells were grown to 80% confluence in DMEM containing 4.5 g/L glucose, 10% heat-inactivated fetal bovine serum, 2 mM L-glutamine, 50 μg/mL penicillin/streptomycin, 100 μg/mL Normocin (InvivoGen) at 37° C. in 5% CO2. For peptide screening experiments, cells were scraped in growth medium, counted, and plated to flat-bottom 96-well plates at a density of 5×10^4 cells/well either in the presence or absence (control) of 200 ng/mL TLR1/TLR2 agonist PAM3CSK4 (InvivoGen). Peptides were added in 6 replicate wells at a dose of 10 ng/mL in the presence of PAM3CSK4. After 18 hours of stimulation, SEAP concentrations (indicating NF-κB activity) were measured in the supernatants collected from the RAW-Blue cells using QUANTI-BLUE reagent (InvivoGen). After 20 minutes of incubation at 37° C., SEAP levels were determined using spectrophotometry at a wavelength of 630 nm.
Values are the mean and SDM of n=3 replicates. *p<0.05 and ***p<0.001 compared to +PAM3. In FIGS. 44 and 45, where bars are labeled with two compound numbers (“133/150” and “135/152”) this means that the data were pooled for the indicated compounds, i.e., for the non-acetylated and acetylated versions of the indicated peptides.

Q: Which results are given for “H-(cyclo-4,8)-VSK[ERSQK]VKRKQN-NH2 (H-VSKERSQKVKRKQN-NH2; lactam 4-8; SMILES CC(C)[C@H](N)C(=O)N[C@@H](CO)C(=O)N[C@@H](CCCCN)C(=O)N[C@H]1CCC(=O)NCCCC[C@@H](C(=O)N[C@H](C(=O)N[C@@H](CCCCN)C(=O)N[C@@H](CCCNC(=N)N)C(=O)N[C@@H](CCCCN)C(=O)N[C@@H](CCC(N)=O)C(=O)N[C@@H](CC(N)=O)C(N)=O)C(C)C)NC(=O)[C@H](CCC(N)=O)NC(=O)[C@H](CO)NC(=O)[C@H](CCCNC(=N)N)NC1=O) [Compound 133]”?
A: [θ]222/[θ]208 ratio of ellipticities [1]: 0.45; fH fraction helicity [1]: 0.17; α-helical character by CD (in words) [1]: did not seem to stabilize; Molar ellipticity [θ]192 [1]: 1733.35 deg cm^2 dmol^−1 residue^−1; Molar ellipticity [θ]208 [1]: −5010.81 deg cm^2 dmol^−1 residue^−1; Molar ellipticity [θ]222 [1]: −2260.92 deg cm^2 dmol^−1 residue^−1; inhibition of cell migration (in words) [2]: significantly inhibit cell migration; inhibition of cellular invasion (in words) [3]: significantly inhibited cellular invasion

Q: With “H-(cyclo-6,10)-VSKLR[EQLVK]RKQN-NH2 (H-VSKLREQLVKRKQN-NH2; lactam 6-10; SMILES CC(C)C[C@H](NC(=O)[C@H](CCCCN)NC(=O)[C@H](CO)NC(=O)[C@@H](N)C(C)C)C(=O)N[C@@H](CCCNC(=N)N)C(=O)N[C@H]1CCC(=O)NCCCC[C@@H](C(=O)N[C@@H](CCCNC(=N)N)C(=O)N[C@@H](CCCCN)C(=O)N[C@@H](CCC(N)=O)C(=O)N[C@@H](CC(N)=O)C(N)=O)NC(=O)[C@H](C(C)C)NC(=O)[C@H](CC(C)C)NC(=O)[C@H](CCC(N)=O)NC1=O) [Compound 135]” as the substance, how does the “inhibition of inflammation (SEAP / NF-κB activity, in words)” value (NF-κB) read?
A: Its value is “significantly inhibited inflammation”.

Q: What about the “[θ]222/[θ]208 ratio of ellipticities” value [1] of the same substance?
A: The value was 0.55.

Q: And the fH fraction helicity [1]?
A: The fH fraction helicity was 0.22.

Q: What about the “α-helical character by CD (in words)” value [1] of the same substance?
A: The value was “increase in α-helix structure”.

Q: And the “Molar ellipticity [θ]192” value [1]?
A: Its value is 1245.85 deg cm^2 dmol^−1 residue^−1.

Q: And the “Molar ellipticity [θ]208” value [1]?
A: Its value is −7906.16 deg cm^2 dmol^−1 residue^−1.

Q: What about the “Molar ellipticity [θ]222” value [1] of the same substance?
A: Its value is −4400.73 deg cm^2 dmol^−1 residue^−1.

Q: And the “inhibition of cell migration (in words)” value [2]?
A: The value was “significantly inhibit cell migration”.

Q: What about the “inhibition of cellular invasion (in words)” value [3] of the same substance?
A: The value was “significantly inhibited cellular invasion”.
